Data on five substances can be found in US20160243213A9.

The target in experiment [1] is HPV-16 E7 wild type (E7WT) expressed by RMA-E7 transfectants (HPV-16) (UniProt P03129).
For experiment [2] the target is unchanged. This is another data set of the same source.

The substance “in vitro restimulated spleen cells of C57BL/6 mice inoculated with RPBLAs containing RX3-E7SH (cells without a defined receptor)” showed a 51Cr-release assay (after 1st in vitro restimulation), Specific Lysis (%) in experiment [1] of 33%.

For the substance “in vitro restimulated spleen cells of C57BL/6 mice inoculated with RPBLAs containing RX3-E7SH and incomplete Freund's adjuvant (cells without a defined receptor)”, in experiment [1], the 51Cr-release assay (after 1st in vitro restimulation), Specific Lysis (%) is 29%.

The substance “in vitro restimulated spleen cells of C57BL/6 mice inoculated with RPBLAs containing RX3-Gfp (cells without a defined receptor)” displayed a 51Cr-release assay (after 1st in vitro restimulation), specific lysis in experiment [2] of 12%.

The substance “in vitro restimulated spleen cells of C57BL/6 mice inoculated with the DNA vaccine pTHamp-E7SH (cells without a defined receptor)” came in with a 51Cr-release assay (after 1st in vitro restimulation), specific lysis in experiment [2] of 26%.

“in vitro restimulated spleen cells of C57BL/6 mice inoculated with the empty plasmid pTHamp (cells without a defined receptor)”: in experiment [1], the 51Cr-release assay (after 1st in vitro restimulation), Specific Lysis (%) was found to be 8%.
